From US12006344 (Novo Nordisk, dated 2024) come the findings set out here.

The target in assay [1] is human MIC-1 receptor (hGFRAL, GDNF family receptor alpha like) (human) (UniProt Q6UXV0). Kind of assay: cell-based or functional assay.
The target of assay [2] is T1, human MIC-1 receptor (hGFRAL, GDNF family receptor alpha like) (human, UniProt Q6UXV0 19-394).
T1 sequence (looked up): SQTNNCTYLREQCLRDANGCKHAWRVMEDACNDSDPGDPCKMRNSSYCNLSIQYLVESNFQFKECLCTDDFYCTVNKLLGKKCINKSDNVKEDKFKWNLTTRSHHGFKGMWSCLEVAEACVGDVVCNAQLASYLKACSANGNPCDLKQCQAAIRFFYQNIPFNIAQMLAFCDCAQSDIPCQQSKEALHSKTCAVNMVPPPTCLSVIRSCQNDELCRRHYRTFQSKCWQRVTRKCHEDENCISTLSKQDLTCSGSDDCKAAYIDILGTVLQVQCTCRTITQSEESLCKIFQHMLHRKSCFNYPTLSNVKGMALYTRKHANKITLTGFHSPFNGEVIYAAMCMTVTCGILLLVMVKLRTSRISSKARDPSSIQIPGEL
The assay is described as follows: cell-based or functional assay.

With “HSA-GGSSSGS (SEQ ID NO: 152)-MIC-1 (SEQ ID NO: 1) (from UniProt Q99988 197-308) (ligand)”, in assay [1], the pERK EC50 (nM) is 3.6 nM.

B1: SEPATSGSETPGTSESATPESGPG TSTEPSEG-MIC-1-Δ1-3 (ligand)
chain: SEPATSGSETPGTSESATPESGPGTSTEPSEGGDHCPLGPGRCCRLHTVRASLEDLGWADWVLSPREVQVTMCIGACPSQFRAANMHAQIKTSLHRLKPDTVPAPCCVPASYNPMVLIQKTDTGVSLQTYDDLLAKDCHCI
On to B1, for which, in assay [2], the “pERK EC50 (nM)” value turned out to be 0.4 nM and the “pERK Emax (%)” value was determined as 100%.

B2: …-MIC-1-Δ1-3 (ligand)
chain: SEPATSGSETPGTSTEPSEGSAPGGDHCPLGPGRCCRLHTVRASLEDLGWADWVLSPREVQVTMCIGACPSQFRAANMHAQIKTSLHRLKPDTVPAPCCVPASYNPMVLIQKTDTGVSLQTYDDLLAKDCHCI
For the molecule B2, in assay [2], the “pERK EC50 (nM)” value is 0.7 nM and the “pERK Emax (%)” value was 100%.

B3: (SEPATSGSETPG)2-MIC-1-Δ1-3(M86L) (ligand)
chain: SEPATSGSETPGSEPATSGSETPGGDHCPLGPGRCCRLHTVRASLEDLGWADWVLSPREVQVTMCIGACPSQFRAANMHAQIKTSLHRLKPDTVPAPCCVPASYNPLVLIQKTDTGVSLQTYDDLLAKDCHCI
For B3, in assay [2], the “pERK EC50 (nM)” value worked out at 0.4 nM and the “pERK Emax (%)” value was determined as 100%.

B4: (SEPATSGSETPG)2-MIC-1-Δ1-3 (ligand)
chain: SEPATSGSETPGSEPATSGSETPGGDHCPLGPGRCCRLHTVRASLEDLGWADWVLSPREVQVTMCIGACPSQFRAANMHAQIKTSLHRLKPDTVPAPCCVPASYNPMVLIQKTDTGVSLQTYDDLLAKDCHCI
For B4, in assay [2], the “pERK EC50 (nM)” value amounted to 0.4 nM and the “pERK Emax (%)” value came to 100%.

B5: (SEPATSGSETPG)2-MIC-1-Δ1-3(M57L) (ligand)
chain: SEPATSGSETPGSEPATSGSETPGGDHCPLGPGRCCRLHTVRASLEDLGWADWVLSPREVQVTMCIGACPSQFRAANLHAQIKTSLHRLKPDTVPAPCCVPASYNPMVLIQKTDTGVSLQTYDDLLAKDCHCI
Turning to B5, in assay [2], the “pERK EC50 (nM)” value worked out at 0.6 nM and the “pERK Emax (%)” value came to 100%.

B6: (SEPATSGSETPG)2-MIC-1-Δ1-3(M57E) (ligand)
chain: SEPATSGSETPGSEPATSGSETPGGDHCPLGPGRCCRLHTVRASLEDLGWADWVLSPREVQVTMCIGACPSQFRAANEHAQIKTSLHRLKPDTVPAPCCVPASYNPMVLIQKTDTGVSLQTYDDLLAKDCHCI
With B6, in assay [2], the “pERK EC50 (nM)” value was 0.6 nM and the “pERK Emax (%)” value was 60%.

B7: AAPEDEETPEQE-MIC-1-Δ1-3 (ligand)
chain: AAPEDEETPEQEGDHCPLGPGRCCRLHTVRASLEDLGWADWVLSPREVQVTMCIGACPSQFRAANMHAQIKTSLHRLKPDTVPAPCCVPASYNPMVLIQKTDTGVSLQTYDDLLAKDCHCI
For the molecule B7, in assay [2], the “pERK EC50 (nM)” value is 0.5 nM and the “pERK Emax (%)” value was determined as 100%.

B8: (SEPATSGSETPG)2-MIC-1-Δ1-3(M57L, M86L) (ligand)
chain: SEPATSGSETPGSEPATSGSETPGGDHCPLGPGRCCRLHTVRASLEDLGWADWVLSPREVQVTMCIGACPSQFRAANLHAQIKTSLHRLKPDTVPAPCCVPASYNPLVLIQKTDTGVSLQTYDDLLAKDCHCI
In the case of B8, in assay [2], the “pERK EC50 (nM)” value was 0.4 nM and the “pERK Emax (%)” value turned out to be 100%.

B9: MIC-1(R2A, N3E, A81E) (ligand)
chain: AAEGDHCPLGPGRCCRLHTVRASLEDLGWADWVLSPREVQVTMCIGACPSQFRAANMHAQIKTSLHRLKPDTVPAPCCVPESYNPMVLIQKTDTGVSLQTYDDLLAKDCHCI
With B9, in assay [2], the “pERK EC50 (nM)” value amounted to 0.3 nM and the “pERK Emax (%)” value was 100%.

B10: AAPEDEETPEQEGSGSGSGSGS-MIC-1-Δ1-3 (ligand)
chain: AAPEDEETPEQEGSGSGSGSGSGDHCPLGPGRCCRLHTVRASLEDLGWADWVLSPREVQVTMCIGACPSQFRAANMHAQIKTSLHRLKPDTVPAPCCVPASYNPMVLIQKTDTGVSLQTYDDLLAKDCHCI
Take B10: in assay [2], the “pERK EC50 (nM)” value came out at 0.5 nM and the “pERK Emax (%)” value came out at 100%.

B11: AAPDEGTEEETEGSGSGSGSGS-MIC-1-Δ1-3 (ligand)
chain: AAPDEGTEEETEGSGSGSGSGSGDHCPLGPGRCCRLHTVRASLEDLGWADWVLSPREVQVTMCIGACPSQFRAANMHAQIKTSLHRLKPDTVPAPCCVPASYNPMVLIQKTDTGVSLQTYDDLLAKDCHCI
On to B11, for which, in assay [2], the “pERK EC50 (nM)” value was 0.5 nM and the “pERK Emax (%)” value is 100%.

B12: A(GPEQGQEP)3-MIC-1-Δ1-3 (ligand)
chain: AGPEQGQEPGPEQGQEPGPEQGQEPGDHCPLGPGRCCRLHTVRASLEDLGWADWVLSPREVQVTMCIGACPSQFRAANMHAQIKTSLHRLKPDTVPAPCCVPASYNPMVLIQKTDTGVSLQTYDDLLAKDCHCI
For B12, in assay [2], the “pERK EC50 (nM)” value came to 0.8 nM and the “pERK Emax (%)” value was 100%.

B13: SEPATSGSETPGTSESATPESGPGTSTEPS-MIC-1-Δ1-3 (ligand)
chain: SEPATSGSETPGTSESATPESGPGTSTEPSGDHCPLGPGRCCRLHTVRASLEDLGWADWVLSPREVQVTMCIGACPSQFRAANMHAQIKTSLHRLKPDTVPAPCCVPASYNPMVLIQKTDTGVSLQTYDDLLAKDCHCI
B13: in assay [2], the “pERK EC50 (nM)” value was determined as 0.4 nM and the “pERK Emax (%)” value was 100%.
